From article PMC6549140, “ATP hydrolysis by KaiC promotes its KaiA binding in the cyanobacterial circadian clock system” (Life Science Alliance, 2019)
Several values for one entry are separate records, joined by “and”; a condition that tells them apart may be missing. Identical values can stand only once.

Key:
[1] = target: T1, CI hexamer (hexameric CI domain M1–S253) (Thermosynechococcus vestitus, UniProt Q79V60); assay: native mass spectrometry after trypsin digestion; type: binding; conditions: KaiCAA incubated with 1 mM ATP, 37°C, 5 h; 150 mM ammonium acetate; 0.02 mg/ml trypsin up to 60 min
T1 construct: gene kaiC; CI domain M1-S253 made by trypsin digestion of KaiCAA (the S431A/T432A sites lie outside), hexamer
T1 sequence (Q79V60 1-253): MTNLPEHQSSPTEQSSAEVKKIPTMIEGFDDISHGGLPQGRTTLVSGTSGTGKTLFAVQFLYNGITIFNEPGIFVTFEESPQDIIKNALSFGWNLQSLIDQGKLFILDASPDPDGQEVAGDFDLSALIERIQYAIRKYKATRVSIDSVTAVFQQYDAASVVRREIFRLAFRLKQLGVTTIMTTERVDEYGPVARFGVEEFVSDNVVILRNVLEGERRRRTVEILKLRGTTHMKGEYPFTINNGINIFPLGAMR

[2] = target: CI domain (M1–S253) of KaiCAA, tryptic fragment, hexamer (T. elongatus BP-1); assay: native MS; KaiCAA hexamer (1 mM ATP, 5 h, 37°C) exchanged into 150 mM ammonium acetate and digested with 0.02 mg/ml trypsin for 0, 30 and 60 min, analysed directly
[3] = target: KaiCAA (KaiC with Ser431 and Thr432 both substituted with alanine), hexamer (T. elongatus BP-1) (UniProt Q79V60); assay: native MS; KaiC mutant (20 uM) alone, hexamerised with 1 mM ATP, 5 h at 37°C, exchanged into 150 mM ammonium acetate pH 6.8, nanoflow ESI
[4] = target: KaiCAA (KaiC with Ser431 and Thr432 both substituted with alanine), hexamer (T. elongatus BP-1) (UniProt Q79V60); assay: native MS; KaiC mutant (20 uM) alone, hexamerised with 1 mM AMPPNP, 5 h at 37°C, exchanged into 150 mM ammonium acetate pH 6.8, nanoflow ESI
[5] = target: KaiCDD (KaiC with Ser431 and Thr432 both substituted with aspartate), hexamer (T. elongatus BP-1) (UniProt Q79V60); assay: native MS; KaiC mutant (20 uM) alone, hexamerised with 1 mM ATP, 5 h at 37°C, exchanged into 150 mM ammonium acetate pH 6.8, nanoflow ESI
[6] = target: KaiCDD (KaiC with Ser431 and Thr432 both substituted with aspartate), hexamer (T. elongatus BP-1) (UniProt Q79V60); assay: native MS; KaiC mutant (20 uM) alone, hexamerised with 1 mM AMPPNP, 5 h at 37°C, exchanged into 150 mM ammonium acetate pH 6.8, nanoflow ESI
[7] = target: KaiC_(AA/E77Q) (KaiCAA with the catalytic glutamate Glu77 of the CI ATPase domain substituted by glutamine), hexamer (T. elongatus BP-1) (UniProt Q79V60); assay: native MS; KaiC mutant (20 uM) alone, hexamerised with 1 mM ATP, 5 h at 37°C, exchanged into 150 mM ammonium acetate pH 6.8, nanoflow ESI
[8] = target: KaiCAA (KaiC with Ser431 and Thr432 both substituted with alanine), hexamer (T. elongatus BP-1) (UniProt Q79V60); assay: native MS; 6:1, 6:3, 6:6 and 6:9 mixtures of KaiCAA and KaiA (up to excess KaiA), 1 mM ATP, 5 h at 37°C, nanoflow ESI
[9] = target: KaiCAA (KaiC with Ser431 and Thr432 both substituted with alanine), hexamer (T. elongatus BP-1) (UniProt Q79V60); assay: native MS; 6:3 mixture of KaiC mutant (20 uM) and KaiA (10 uM), 1 mM ATP, 5 h at 37°C, 150 mM ammonium acetate pH 6.8, nanoflow ESI
[10] = target: KaiCDD (KaiC with Ser431 and Thr432 both substituted with aspartate), hexamer (T. elongatus BP-1) (UniProt Q79V60); assay: as above
[11] = target: KaiC_(AA/E77Q) (KaiCAA with the catalytic glutamate Glu77 of the CI ATPase domain substituted by glutamine), hexamer (T. elongatus BP-1) (UniProt Q79V60); assay: as above
[12] = target: KaiCAA (KaiC with Ser431 and Thr432 both substituted with alanine), hexamer (T. elongatus BP-1) (UniProt Q79V60); assay: native MS; 6:3 mixture of KaiC mutant (20 uM) and KaiA (10 uM), 1 mM AMPPNP, 5 h at 37°C, 150 mM ammonium acetate pH 6.8, nanoflow ESI
[13] = target: KaiCDD (KaiC with Ser431 and Thr432 both substituted with aspartate), hexamer (T. elongatus BP-1) (UniProt Q79V60); assay: as above

Molecule: Nc1ncnc2c1ncn2[C@@H]1O[C@H](COP(=O)(O)OP(=O)(O)OP(=O)(O)O)[C@@H](O)[C@H]1O [ATP]
- native mass spectrometry after trypsin digestion [1]: the hexameric CI domain (M1–S253) containing six ATP molecules

Molecule: CI domain (M1–S253) of KaiCAA, tryptic fragment, hexamer (domain or fragment)
- stoichiometry N (subunits in the oligomer) [2]: 6

Molecule: KaiCAA (KaiC with Ser431 and Thr432 both substituted with alanine), hexamer (from UniProt Q79V60 1-518) (natural protein)
- stoichiometry N (subunits in the oligomer) [3]: 6
- stoichiometry N (subunits in the oligomer) [4]: 6

Molecule: KaiCDD (KaiC with Ser431 and Thr432 both substituted with aspartate), hexamer (from UniProt Q79V60 1-518) (natural protein)
- stoichiometry N (subunits in the oligomer) [5]: 6
- stoichiometry N (subunits in the oligomer) [6]: 6

Molecule: KaiC_(AA/E77Q) (KaiCAA with the catalytic glutamate Glu77 of the CI ATPase domain substituted by glutamine), hexamer (from UniProt Q79V60 1-518) (natural protein)
- stoichiometry N (subunits in the oligomer) [7]: 6

B1: KaiA (natural protein)
chain: MAQSTALTICGLVYSPAIGQELVRLHTSDIDELVYFSSEREFCNYLEARRNSIACLILEWGEGTPQIITYLHHSATLLPAILIFPAAPAPPPAGPHYHIAEVILTTDQLDQLNRQIEEAITGFVKLCPGCAVPPHVLFRLPALKESSNVDPQHRLSQKLKERLGYLGVYYKRDTAFFFRRMSPADKRKLLDELRSIYRTIVLEYFNTDAKVNERIDEFVSKAFFADISVSQVLEIHVELMDTFSKQLKLEGRSEDILLDYRLTLIDVIAHLCEMYRRSIPREV
- stoichiometry N (KaiA molecules per KaiC hexamer) [8]: 2 and 4
- stoichiometry N (KaiA molecules per KaiC hexamer) [9]: 2
- stoichiometry N (KaiA molecules per KaiC hexamer) [10]: 2
- stoichiometry N (KaiA molecules per KaiC hexamer) [11]: 2
- stoichiometry N (KaiA molecules per KaiC hexamer) [12]: 2
- stoichiometry N (KaiA molecules per KaiC hexamer) [13]: 2
